The supplement of paper PMC9732359
± gives the uncertainty stated by the source.

Test: protein stability index of a GFP-peptide fusion (yeast GPS) (PSI 1-4); higher = more stable; sorted into four equal gates, so the index is relative within each strain
In short: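 Plasmids in a pooled yeast library fused tiled 17-residue yeast protein peptides downstream of GFP and also expressed Cherry. Mid-log cultures grown without leucine were sorted into four equal gates by GFP/Cherry fluorescence ratio. Each gate's plasmids were PCR-amplified and Illumina-sequenced, and reads were matched to strains by barcodes. The protein stability index is derived by multiplying each gate's read frequency by its gate number and summing the results.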

Sequence | protein stability index (doa10∆) | protein stability index (pdr5∆) | protein stability index (san1∆) | protein stability index (ubr1∆)
QCCEFMTMLTPNYLHLV [YML103C/NUP188] | 2.23 ± 0.05 | 1.77 ± 0.045 | 1.66 ± 0.084 | 1.68 ± 0.041
NLYMLVTTCVYLACKVE [SSN8] |  |  | 1.62 ± 0.25 | 
TAASEARKHKLKTLVQG [RPS27A] | 2.1 ± 0.24 | 2.75 ± 0.22 |  | 3.04 ± 0.18
PKMKDEEYDDDDDNSNV [SNF2] | 3.4 ± 0.095 | 3.37 ± 0.16 | 3.23 ± 0.072 | 3.27 ± 0.15
EQEQQQQQIIKIRITLT [RPS20] | 2.77 ± 0.057 | 2.86 ± 0.06 | 3.03 ± 0.043 | 3.09 ± 0.061
VEVKDASLVDYVQVRQP [RPS5] | 2.9 ± 0.3 | 3.41 ± 0.17 |  | 1.18 ± 0.067
DKITLHDEKTLAPSKHQ [SIR4] |  | 2.68 ± 0.16 | 2.44 ± 0.2 | 2.92 ± 0.19
KLSESLDTRKELWRKEQ [SMC3] | 1.29 ± 0.077 | 1.75 ± 0.1 | 3.19 ± 0.19 | 1.82 ± 0.12
DDSANIVNVNFMKSVIR [DIS3] | 2.92 ± 0.051 | 3.1 ± 0.06 | 3.06 ± 0.069 | 3.03 ± 0.044
LLQVNKTFCEDPFSDVD [GRR1] | 3.13 ± 0.072 | 3.35 ± 0.051 | 3.32 ± 0.035 | 3.28 ± 0.036
TPGSVSLSAYNLTDEGY [PRP8] | 2.23 ± 0.15 | 2.5 ± 0.077 | 2.3 ± 0.094 | 1.96 ± 0.21
GDNTSDVDMEDRNLTEF [RRI1] |  | 3.08 ± 0.13 | 3.27 ± 0.18 | 3.19 ± 0.058
KQSGFGGQTKPVFHKKA [RPL42A] | 2.74 ± 0.04 | 3.14 ± 0.053 | 2.89 ± 0.043 | 3.045 ± 0.029
YSKAKYPDLQPFVLAEN [CDC53] | 2.3 ± 0.095 | 2.72 ± 0.063 | 2.13 ± 0.07 | 2.26 ± 0.078
IYEEVRAVLKSFLESVI [HHF1] | 3 ± 0.21 | 3.13 ± 0.15 | 2.26 ± 0.15 | 2.66 ± 0.097
KIPAVEYFGGESPVDVQ [FAS1] | 2.97 ± 0.13 | 3.4 ± 0.099 | 3.19 ± 0.1 | 3.09 ± 0.092
AKKSTTISKESTPDQRK [ESC2] | 2.59 ± 0.1 | 2.78 ± 0.12 | 2.94 ± 0.13 | 2.92 ± 0.054
MKVEVDSFSGAKIYPGR [RPL24B] | 3.11 ± 0.18 | 3.36 ± 0.15 | 2.52 ± 0.18 | 2.92 ± 0.18
IFSQTTNSTYNPASATD [YJL039C/NUP192] | 2.83 ± 0.054 | 2.69 ± 0.071 | 2.46 ± 0.054 | 2.63 ± 0.046
RNSWNFALIDYFYDLDV [BRN1] | 2.18 ± 0.057 | 1.87 ± 0.05 | 1.33 ± 0.093 | 2.06 ± 0.044
IDMGEDKENVPVEKVKE [DPB4] | 3.41 ± 0.23 | 3.45 ± 0.14 | 3.29 ± 0.21 | 3.67 ± 0.13
KFLQVMQKHGYIGEFEY [RPS22A] | 2.68 ± 0.063 | 2.27 ± 0.059 | 2.11 ± 0.092 | 2.6 ± 0.054
GRFLRVPKEGLFYFDSS [BRR2] | 3.18 ± 0.11 | 3.32 ± 0.073 | 3.3 ± 0.081 | 3.1 ± 0.054
LPSGVLSRGDDEVTIRR [SMC3] | 3.44 ± 0.083 | 3.25 ± 0.12 | 3.2 ± 0.069 | 3.27 ± 0.068
GIREKRAREKAEAEAEK [RPL13A] |  | 3.5 ± 0.25 |  | 
LQKKVASILLALTQMDQ [RPB3] | 2.88 ± 0.15 | 2.9 ± 0.14 | 2.16 ± 0.15 | 2.62 ± 0.066
LLRRLKKDVEKELPDKV [SNF2] |  | 3.67 ± 0.24 | 3.36 ± 0.092 | 3.38 ± 0.12

Sequence | protein stability index (doa10∆) | protein stability index (pdr5∆) | protein stability index (san1∆) | protein stability index (ubr1∆)
KILPTDIQLKNLFPLKP [SRP68] | 2.41 ± 0.059 | 2.63 ± 0.046 | 2.55 ± 0.043 | 2.53 ± 0.059
MSIDEEDKDSESFSEVC [YCG1] | 2.71 ± 0.15 | 2.34 ± 0.09 | 2.48 ± 0.15 | 2.43 ± 0.067
EREPVPLGILHIPICVT [RRP45] | 1.81 ± 0.077 | 1.88 ± 0.06 | 1.47 ± 0.19 | 1.95 ± 0.059
LNITTVFSHAQTAVTCE [RPS27A] | 2.38 ± 0.043 | 2.21 ± 0.047 | 2.08 ± 0.063 | 2.09 ± 0.052
VSLSQLLFIVGQVAIKT [YCS4] | 1.85 ± 0.062 | 2.27 ± 0.062 | 1.71 ± 0.088 | 2.13 ± 0.046
EAVVDQDVQRTCILHGP [FAS1] | 3.32 ± 0.11 | 3.24 ± 0.087 | 3.17 ± 0.078 | 3.38 ± 0.051
EMIDSHIKEASEEVDDL [SNF2] |  | 2.81 ± 0.19 | 2.81 ± 0.094 | 3.09 ± 0.07
WREIIEKVRDYENSISK [IRR1] | 2.86 ± 0.076 | 2.59 ± 0.085 | 2.39 ± 0.061 | 2.67 ± 0.047
LRNYLTPNVREEKQKSY [PUP1] | 3.41 ± 0.21 | 2.88 ± 0.15 | 3.39 ± 0.085 | 3.27 ± 0.16
FTNELKAELDRYKRENQ [SEM1] | 3.09 ± 0.16 | 3.38 ± 0.14 | 2.98 ± 0.11 | 3.41 ± 0.24
LQQKQRDLILKKGEYAR [SMC3] | 2.3 ± 0.12 | 2.42 ± 0.14 | 2.5 ± 0.29 | 2.71 ± 0.072
QIYTQRAYMRPLGVILT [SCL1] | 1.8 ± 0.053 | 1.38 ± 0.06 | 1.43 ± 0.12 | 1.64 ± 0.036
FHAEPSGTFYRYNAKAI [PUP2] | 2.79 ± 0.15 | 1.81 ± 0.13 | 2.87 ± 0.059 | 1.67 ± 0.077
QGRDTSKLPDPERWLPL [SRP72] | 3.33 ± 0.16 | 2.86 ± 0.21 | 3.31 ± 0.13 | 2.93 ± 0.17
IAPRPLDLLRPVVRAPT [RPL13A] | 2.55 ± 0.08 | 3.15 ± 0.089 | 2.1 ± 0.12 | 2.7 ± 0.051
TFRRRNPYNTRSNKIKV [RPL34A] | 1.43 ± 0.04 | 1.81 ± 0.045 | 1.67 ± 0.066 | 1.9 ± 0.04
LSFSWAILLIINLTQTY [NUT1] | 1.5 ± 0.088 | 1.96 ± 0.069 | 2.24 ± 0.097 | 2.06 ± 0.041
VSANTPKSLNSNININV [SWI1] | 3.14 ± 0.11 | 2.64 ± 0.12 | 2.84 ± 0.12 | 2.87 ± 0.093
GGIETILEHTLFKGTGF [PRP8] | 3.3 ± 0.22 | 3.28 ± 0.21 | 3.21 ± 0.14 | 3.47 ± 0.13
DKKNKRLKFGHRLIATH [SNF2] | 2.02 ± 0.077 | 1.8 ± 0.057 | 1.85 ± 0.091 | 2 ± 0.056
VGCKNLERLTLVFCKHI [GRR1] | 1.52 ± 0.062 | 1.91 ± 0.077 | 1.25 ± 0.11 | 1.63 ± 0.084
QIPLHRAASVGSLKLIE [NAS6] | 2.04 ± 0.078 | 2.16 ± 0.084 | 2.23 ± 0.14 | 1.83 ± 0.1
IDADSLEDIYTSAHEAI [RPL5] | 2.98 ± 0.097 | 3.02 ± 0.11 | 2.9 ± 0.1 | 3.13 ± 0.056
PTSPSYSPTSPSYSPTS [RPO21] | 2.59 ± 0.044 | 2.99 ± 0.041 | 2.66 ± 0.04 | 2.85 ± 0.037
QFKTTIKDTANDNDITV [UBP6] | 2.45 ± 0.11 | 2.09 ± 0.074 | 2.19 ± 0.084 | 1.67 ± 0.041
AGGGSNKSSVRPTGGAN [MED6] | 2.93 ± 0.09 | 3.12 ± 0.1 | 2.79 ± 0.096 | 3.11 ± 0.077
